Assay results as given in article doi:10.1101/2019.12.17.877662 (bioRxiv, 2019).

Columns and labels:
Experiment in all cases: BLI
[1] = molecular target: T1, TtRecF S261C;TtRecR (Thermus thermophilus;Thermus …, UniProt Q5SLM9;Q5SHY0 1-343;1-194, S261C|)
T1 sequence 1: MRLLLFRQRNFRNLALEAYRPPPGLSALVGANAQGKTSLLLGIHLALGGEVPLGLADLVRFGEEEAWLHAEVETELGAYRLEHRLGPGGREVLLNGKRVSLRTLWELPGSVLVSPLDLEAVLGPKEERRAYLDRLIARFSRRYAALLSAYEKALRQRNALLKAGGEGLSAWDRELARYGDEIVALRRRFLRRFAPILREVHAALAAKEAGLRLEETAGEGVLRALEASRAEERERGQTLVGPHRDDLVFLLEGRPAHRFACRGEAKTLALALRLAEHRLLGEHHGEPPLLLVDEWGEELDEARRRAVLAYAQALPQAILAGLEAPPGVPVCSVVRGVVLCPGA
T1 sequence 2: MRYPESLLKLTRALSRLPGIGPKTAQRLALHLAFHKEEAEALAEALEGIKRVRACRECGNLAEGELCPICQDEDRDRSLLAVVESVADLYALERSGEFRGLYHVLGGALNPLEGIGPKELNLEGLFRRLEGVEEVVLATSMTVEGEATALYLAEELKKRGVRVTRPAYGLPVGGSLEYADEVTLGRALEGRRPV

[2] = molecular target: T2, TtRecR G169C (Thermus thermophilus, UniProt Q5SHY0 1-194, G169C)
T2 sequence: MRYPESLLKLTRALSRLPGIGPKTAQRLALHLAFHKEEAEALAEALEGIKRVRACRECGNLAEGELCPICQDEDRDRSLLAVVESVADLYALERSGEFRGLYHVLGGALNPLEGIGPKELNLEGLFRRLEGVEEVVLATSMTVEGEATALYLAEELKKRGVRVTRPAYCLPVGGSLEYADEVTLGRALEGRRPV

[3] = molecular target: T3, TtRecR (Thermus thermophilus, UniProt Q5SHY0 1-194)
T3 sequence: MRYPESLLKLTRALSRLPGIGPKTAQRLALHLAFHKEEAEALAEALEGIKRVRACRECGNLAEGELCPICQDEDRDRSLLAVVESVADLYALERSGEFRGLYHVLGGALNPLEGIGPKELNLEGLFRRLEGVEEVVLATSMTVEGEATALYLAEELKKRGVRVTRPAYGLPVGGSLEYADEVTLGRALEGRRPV

[4] = molecular target: T4, TtRecF S261C (Thermus thermophilus, UniProt Q5SLM9 1-343, S261C)
T4 sequence: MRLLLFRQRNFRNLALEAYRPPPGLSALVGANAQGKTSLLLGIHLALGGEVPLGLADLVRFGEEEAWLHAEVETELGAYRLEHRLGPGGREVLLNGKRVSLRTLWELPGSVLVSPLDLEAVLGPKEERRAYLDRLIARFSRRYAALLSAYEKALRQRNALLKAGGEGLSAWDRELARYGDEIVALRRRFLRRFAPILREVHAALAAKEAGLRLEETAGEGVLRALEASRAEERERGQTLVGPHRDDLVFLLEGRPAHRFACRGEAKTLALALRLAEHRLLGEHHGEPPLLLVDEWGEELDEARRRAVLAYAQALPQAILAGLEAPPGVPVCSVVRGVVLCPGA

[5] = molecular target: T5, TtRecF D57C (Thermus thermophilus, UniProt Q5SLM9 1-343, D57C)
T5 sequence: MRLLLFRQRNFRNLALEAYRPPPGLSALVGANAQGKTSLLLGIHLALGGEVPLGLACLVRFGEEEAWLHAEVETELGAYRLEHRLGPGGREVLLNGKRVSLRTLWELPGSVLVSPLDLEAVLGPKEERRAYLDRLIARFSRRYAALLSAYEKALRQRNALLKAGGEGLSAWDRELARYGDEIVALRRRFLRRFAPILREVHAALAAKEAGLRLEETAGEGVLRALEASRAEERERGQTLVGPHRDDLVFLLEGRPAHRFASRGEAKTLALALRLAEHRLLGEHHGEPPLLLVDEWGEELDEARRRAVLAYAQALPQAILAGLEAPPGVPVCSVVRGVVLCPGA

[6] = molecular target: T6, TtSSB (Thermus thermophilus, UniProt Q5SLP9 1-263)
T6 sequence: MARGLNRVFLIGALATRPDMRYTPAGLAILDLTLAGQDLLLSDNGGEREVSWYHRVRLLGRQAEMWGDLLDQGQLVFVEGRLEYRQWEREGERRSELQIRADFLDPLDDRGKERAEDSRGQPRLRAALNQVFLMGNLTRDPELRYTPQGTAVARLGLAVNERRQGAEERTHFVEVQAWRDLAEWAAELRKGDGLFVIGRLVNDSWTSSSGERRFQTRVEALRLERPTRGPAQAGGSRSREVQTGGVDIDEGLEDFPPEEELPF

[7] = molecular target: T7, TtRecF D57C;TtRecR (Thermus thermophilus;Thermus …, UniProt Q5SLM9;Q5SHY0 1-343;1-194, D57C|)
T7 sequence 1: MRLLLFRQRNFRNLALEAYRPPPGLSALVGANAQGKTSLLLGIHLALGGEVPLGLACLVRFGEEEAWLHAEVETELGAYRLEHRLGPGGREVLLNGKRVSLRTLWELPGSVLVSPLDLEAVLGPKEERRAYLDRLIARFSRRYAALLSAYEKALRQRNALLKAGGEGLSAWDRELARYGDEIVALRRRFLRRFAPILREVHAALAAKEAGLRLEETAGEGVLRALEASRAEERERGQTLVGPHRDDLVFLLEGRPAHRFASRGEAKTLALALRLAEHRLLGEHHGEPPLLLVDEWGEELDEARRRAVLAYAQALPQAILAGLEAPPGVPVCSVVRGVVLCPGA
T7 sequence 2: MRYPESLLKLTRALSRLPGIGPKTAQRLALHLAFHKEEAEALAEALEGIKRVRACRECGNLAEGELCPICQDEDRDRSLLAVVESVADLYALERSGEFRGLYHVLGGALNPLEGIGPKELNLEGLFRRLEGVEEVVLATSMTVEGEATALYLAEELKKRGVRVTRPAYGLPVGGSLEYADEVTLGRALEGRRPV

Q: Does GCAATGAAGTACGCTTGCCAGCTGCAGTCATGATTG (ssDNA) [biotinylated 36-mer ssDNA] bind [1]?
A: Result: binds

Q: Does GCAATGAAGTACGCTTGCCAGCTGCAGTCATGATTG (ssDNA) [biotinylated 36-mer ssDNA] bind [2]?
A: Result: binds

Q: Does GCAATGAAGTACGCTTGCCAGCTGCAGTCATGATTG (ssDNA) [biotinylated 36-mer ssDNA] bind [3]?
A: Result: no binding

Q: What about the Kd [4] of the same binder?
A: The Kd was 19.7 µM.

Q: And the Kd [5]?
A: The Kd was 146 µM.

Q: And the Kd [6]?
A: The Kd was roughly 0.0072 µM.

Q: Does GCAATGAAGTACGCTTGCCAGCTGCAGTCATGATTG (ssDNA) [biotinylated 36-mer ssDNA] bind [7]?
A: Result: binds
